Where two headings read alike, the source gives them in different places. Each block holds one binder with its values, some of them ahead of it.
What was measured:
4H797-bN = target: T1, 4H797-bN; test: two-hybrid library CCNG1;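 note: natural log of median RNA to DNA barcode read ratio; higher means stronger binding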
T1 chain: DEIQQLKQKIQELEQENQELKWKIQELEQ

4H687-bN = target: T2, 4H687-bN; test: two-hybrid library CCNG1;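 note: natural log of median RNA to DNA barcode read ratio; higher means stronger binding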
T2 chain: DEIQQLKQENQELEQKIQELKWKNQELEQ

4H953-bN = target: T3, 4H953-bN; test: two-hybrid library CCNG1;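 note: natural log of median RNA to DNA barcode read ratio; higher means stronger binding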
T3 chain: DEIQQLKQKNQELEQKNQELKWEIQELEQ

4H568-bN = target: T4, 4H568-bN; test: two-hybrid library CCNG1;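 note: natural log of median RNA to DNA barcode read ratio; higher means stronger binding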
T4 chain: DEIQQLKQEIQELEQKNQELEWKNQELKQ

4H967-bN = target: T5, 4H967-bN; test: two-hybrid library CCNG1;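 note: natural log of median RNA to DNA barcode read ratio; higher means stronger binding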
T5 chain: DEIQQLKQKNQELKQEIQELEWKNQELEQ

4H607-bN = target: T6, 4H607-bN; test: two-hybrid library CCNG1;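 note: natural log of median RNA to DNA barcode read ratio; higher means stronger binding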
T6 chain: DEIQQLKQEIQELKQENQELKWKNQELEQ

4H3606-bN = target: T7, 4H3606-bN; test: two-hybrid library CCNG1
T7 chain: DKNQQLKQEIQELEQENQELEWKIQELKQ

4H72-bN = target: T8, 4H72-bN; test: two-hybrid library CCNG1
T8 chain: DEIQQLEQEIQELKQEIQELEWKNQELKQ

4H370-bN = target: T9, 4H370-bN; test: two-hybrid library CCNG1
T9 chain: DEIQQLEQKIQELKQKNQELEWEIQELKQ

4H918-bN = target: T10, 4H918-bN; test: two-hybrid library CCNG1
T10 chain: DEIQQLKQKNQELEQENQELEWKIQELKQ

4H4001-bN = target: T11, 4H4001-bN; test: two-hybrid library CCNG1
T11 chain: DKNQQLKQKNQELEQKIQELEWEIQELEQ

4H3843-bN = target: T12, 4H3843-bN; test: two-hybrid library CCNG1
T12 chain: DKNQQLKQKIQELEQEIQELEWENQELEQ

4H883-bN = target: T13, 4H883-bN; test: two-hybrid library CCNG1
T13 chain: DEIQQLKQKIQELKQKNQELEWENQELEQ

4H3782-bN = target: T14, 4H3782-bN; test: two-hybrid library CCNG1
T14 chain: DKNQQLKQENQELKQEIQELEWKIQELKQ

4H462-bN = target: T15, 4H462-bN; test: two-hybrid library CCNG1
T15 chain: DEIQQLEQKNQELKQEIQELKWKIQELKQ

O9-bS = target: T16, O9-bS; test: two-hybrid library CCNG1
T16 chain: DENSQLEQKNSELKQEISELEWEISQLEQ

O4-bS = target: T17, O4-bS; test: two-hybrid library CCNG1
T17 chain: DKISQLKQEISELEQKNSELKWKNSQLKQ

O6-bS = target: T18, O6-bS; test: two-hybrid library CCNG1
T18 chain: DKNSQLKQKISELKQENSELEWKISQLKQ

O5-bS = target: T19, O5-bS; test: two-hybrid library CCNG1
T19 chain: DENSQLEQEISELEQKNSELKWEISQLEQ

O8-bS = target: T20, O8-bS; test: two-hybrid library CCNG1
T20 chain: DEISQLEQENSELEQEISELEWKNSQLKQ

O7-bS = target: T21, O7-bS; test: two-hybrid library CCNG1
T21 chain: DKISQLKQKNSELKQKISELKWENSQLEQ

P9mSN = target: T22, P9mSN; test: two-hybrid library CCNG1
T22 chain: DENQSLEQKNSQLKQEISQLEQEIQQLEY

4H338-bN = target: T23, 4H338-bN; test: two-hybrid library CCNG1
T23 chain: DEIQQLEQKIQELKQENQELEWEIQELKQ

4H754-bN = target: T24, 4H754-bN; test: two-hybrid library CCNG1
T24 chain: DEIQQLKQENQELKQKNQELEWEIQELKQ

4H908-bN = target: T25, 4H908-bN; test: two-hybrid library CCNG1
T25 chain: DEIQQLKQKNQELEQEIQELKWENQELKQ

4H3427-bN = target: T26, 4H3427-bN; test: two-hybrid library CCNG1
T26 chain: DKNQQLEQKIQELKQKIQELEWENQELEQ

4H3855-bN = target: T27, 4H3855-bN; test: two-hybrid library CCNG1
T27 chain: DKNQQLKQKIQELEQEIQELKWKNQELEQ

4H717-bN = target: T28, 4H717-bN; test: two-hybrid library CCNG1
T28 chain: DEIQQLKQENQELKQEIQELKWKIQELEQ

4H331-bN = target: T29, 4H331-bN; test: two-hybrid library CCNG1
T29 chain: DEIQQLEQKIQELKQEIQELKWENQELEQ

4H454-bN = target: T30, 4H454-bN; test: two-hybrid library CCNG1
T30 chain: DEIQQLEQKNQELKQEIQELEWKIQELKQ

4H3354-bN = target: T31, 4H3354-bN; test: two-hybrid library CCNG1
T31 chain: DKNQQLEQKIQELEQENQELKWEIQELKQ

4H754-bA = target: T32, 4H754-bA; test: two-hybrid library CCNG1
T32 chain: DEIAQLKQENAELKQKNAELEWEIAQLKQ

4H457-bA = target: T33, 4H457-bA; test: two-hybrid library CCNG1
T33 chain: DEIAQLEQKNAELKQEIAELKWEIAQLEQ

4H918-bA = target: T34, 4H918-bA; test: two-hybrid library CCNG1
T34 chain: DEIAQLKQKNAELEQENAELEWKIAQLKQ

4H797-bA = target: T35, 4H797-bA; test: two-hybrid library CCNG1
T35 chain: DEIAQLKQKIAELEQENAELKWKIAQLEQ

4H855-bA = target: T36, 4H855-bA; test: two-hybrid library CCNG1
T36 chain: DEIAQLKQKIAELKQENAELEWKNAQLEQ

4H346-bA = target: T37, 4H346-bA; test: two-hybrid library CCNG1
T37 chain: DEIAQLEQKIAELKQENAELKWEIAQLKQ

4H3926-bA = target: T38, 4H3926-bA; test: two-hybrid library CCNG1
T38 chain: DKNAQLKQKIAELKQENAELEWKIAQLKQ

4H4073-bA = target: T39, 4H4073-bA; test: two-hybrid library CCNG1
T39 chain: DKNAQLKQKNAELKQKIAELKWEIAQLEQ

4H3112-bA = target: T40, 4H3112-bA; test: two-hybrid library CCNG1
T40 chain: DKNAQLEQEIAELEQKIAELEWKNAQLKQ

4H3427-bA = target: T41, 4H3427-bA; test: two-hybrid library CCNG1
T41 chain: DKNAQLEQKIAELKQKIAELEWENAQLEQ

4H968-bA = target: T42, 4H968-bA; test: two-hybrid library CCNG1
T42 chain: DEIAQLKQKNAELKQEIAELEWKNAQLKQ

4H683-bA = target: T43, 4H683-bA; test: two-hybrid library CCNG1
T43 chain: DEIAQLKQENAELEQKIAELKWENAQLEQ

4H3010-bA = target: T44, 4H3010-bA; test: two-hybrid library CCNG1
T44 chain: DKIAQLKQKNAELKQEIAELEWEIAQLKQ

4H780-bA = target: T45, 4H780-bA; test: two-hybrid library CCNG1
T45 chain: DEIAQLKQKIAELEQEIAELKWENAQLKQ

4H575-bA = target: T46, 4H575-bA; test: two-hybrid library CCNG1
T46 chain: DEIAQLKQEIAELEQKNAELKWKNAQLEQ

4H953-bA = target: T47, 4H953-bA; test: two-hybrid library CCNG1
T47 chain: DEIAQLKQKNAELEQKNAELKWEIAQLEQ

APC2237-AA = target: T48, APC2237-AA; test: two-hybrid library CCmax; conditions: mean of both orientations
T48 chain: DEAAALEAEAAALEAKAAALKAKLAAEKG

APC9319-AA = target: T49, APC9319-AA; test: two-hybrid library CCmax; conditions: mean of both orientations
T49 chain: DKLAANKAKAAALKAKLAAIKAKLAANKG

APC3645-AA = target: T50, APC3645-AA; test: two-hybrid library CCmax; conditions: mean of both orientations
T50 chain: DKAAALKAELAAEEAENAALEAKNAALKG

APC8191-AA = target: T51, APC8191-AA; test: two-hybrid library CCmax; conditions: mean of both orientations
T51 chain: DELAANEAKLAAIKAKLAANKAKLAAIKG

APC4436-AA = target: T52, APC4436-AA; test: two-hybrid library CCmax; conditions: mean of both orientations
T52 chain: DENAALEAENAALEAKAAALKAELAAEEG

APC8910-AA = target: T53, APC8910-AA; test: two-hybrid library CCmax; conditions: mean of both orientations
T53 chain: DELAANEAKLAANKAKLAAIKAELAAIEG

APC7099-AA = target: T54, APC7099-AA; test: two-hybrid library CCmax; conditions: mean of both orientations
T54 chain: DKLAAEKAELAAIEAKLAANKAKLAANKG

APC2405-AA = target: T55, APC2405-AA; test: two-hybrid library CCmax; conditions: mean of both orientations
T55 chain: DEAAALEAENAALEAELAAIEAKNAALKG

APC1434-AA = target: T56, APC1434-AA; test: two-hybrid library CCmax
T56 chain: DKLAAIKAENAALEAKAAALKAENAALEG

APC232-AA = target: T57, APC232-AA; test: two-hybrid library CCmax; conditions: mean of both orientations
T57 chain: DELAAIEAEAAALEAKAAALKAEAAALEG

APC4011-AA = target: T58, APC4011-AA; test: two-hybrid library CCmax; conditions: mean of both orientations
T58 chain: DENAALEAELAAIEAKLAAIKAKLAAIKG

APC5383-AA = target: T59, APC5383-AA; test: two-hybrid library CCmax; conditions: mean of both orientations
T59 chain: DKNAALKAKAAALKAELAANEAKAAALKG

APC6108-AA = target: T60, APC6108-AA; test: two-hybrid library CCmax; conditions: mean of both orientations
T60 chain: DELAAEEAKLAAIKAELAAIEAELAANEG

APC4264-AA = target: T61, APC4264-AA; test: two-hybrid library CCmax; conditions: mean of both orientations
T61 chain: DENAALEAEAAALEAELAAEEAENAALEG

APC9096-AA = target: T62, APC9096-AA; test: two-hybrid library CCmax; conditions: mean of both orientations
T62 chain: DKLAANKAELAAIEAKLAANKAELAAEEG

Binder: DKISQLKQEISELEQKNSELKWKNSQLKQ [O4-bS]
interaction score (O9-bS): 0.414
interaction score (O4-bS): -1.26
interaction score (O6-bS): 0.143
interaction score (O5-bS): -0.823
interaction score (O8-bS): -2.55
interaction score (O7-bS): -0.221

Binder: DEIQQLEQKIQELKQEIQELKWENQELEQ [4H331-bN]
interaction score (4H797-bN): -0.866
interaction score (4H338-bN): -0.434
interaction score (4H687-bN): -0.624
interaction score (4H754-bN): -0.762
interaction score (4H953-bN): -0.578
interaction score (4H908-bN): -1.35
interaction score (4H568-bN): -1.41
interaction score (4H3427-bN): 1.12
interaction score (4H967-bN): -0.995
interaction score (4H607-bN): -2.2
interaction score (4H3855-bN): 1.17
interaction score (4H3606-bN): -0.132
interaction score (4H717-bN): -0.661
interaction score (4H72-bN): 0.918
interaction score (4H370-bN): 0.508
interaction score (4H918-bN): -0.476
interaction score (4H4001-bN): 0.329
interaction score (4H3843-bN): -0.476
interaction score (4H883-bN): -0.0918
interaction score (4H331-bN): -0.214
interaction score (4H3782-bN): -0.492
interaction score (4H462-bN): -0.381
interaction score (4H454-bN): -0.999
interaction score (4H3354-bN): -0.055

Binder: DKIAQLKQKNAELKQEIAELEWEIAQLKQ [4H3010-bA]
interaction score (4H754-bA): -0.693
interaction score (4H457-bA): 1.48
interaction score (4H918-bA): -0.579
interaction score (4H797-bA): -0.928
interaction score (4H855-bA): -1.32
interaction score (4H346-bA): -0.9
interaction score (4H3926-bA): 1.35
interaction score (4H4073-bA): 0.722
interaction score (4H3112-bA): -0.267
interaction score (4H3427-bA): 0.296
interaction score (4H968-bA): -0.854
interaction score (4H683-bA): 0.693
interaction score (4H3010-bA): 0.824
interaction score (4H780-bA): -1.79
interaction score (4H575-bA): -0.532
interaction score (4H953-bA): 0.368

Results, then the binder that gave them:

interaction score (4H797-bN): -0.386
interaction score (4H687-bN): 0.128
interaction score (4H953-bN): -0.614
interaction score (4H568-bN): 1.07
interaction score (4H967-bN): -1.43
interaction score (4H607-bN): 0.0432
interaction score (4H3606-bN; mean of both orientations): -0.385
interaction score (4H72-bN): -0.312
interaction score (4H370-bN): -0.0845
interaction score (4H918-bN): -0.149
interaction score (4H4001-bN): -0.219
interaction score (4H3843-bN): -0.0433
interaction score (4H883-bN): -1.5
interaction score (4H3782-bN): -0.77
interaction score (4H462-bN): -0.288
Binder: DKNQQLKQEIQELEQENQELEWKIQELKQ [4H3606-bN]

interaction score (P9mSN): -1.56
Binder: DENQSLEQKNSQLKQEISQLEQEIQQLEY [P9mSN]

interaction score (APC2237-AA): -1.66
interaction score (APC9319-AA): -1.75
interaction score (APC3645-AA): -1.31
interaction score (APC8191-AA): -1.74
interaction score (APC4436-AA): -1.61
interaction score (APC8910-AA): -1.81
interaction score (APC7099-AA): -1.28
interaction score (APC2405-AA): -1.36
interaction score (APC1434-AA): -1.78
interaction score (APC232-AA): -1.48
interaction score (APC4011-AA): -1.72
interaction score (APC5383-AA): -1.97
interaction score (APC6108-AA): -1.79
interaction score (APC4264-AA): -1.64
interaction score (APC9096-AA): -1.36
Binder: DKLAAIKAENAALEAKAAALKAENAALEG [APC1434-AA]

— paper PMC10397247
